Consider 1 molecule from paper PMC10953500 (2024).

The target of assay [1] is receptor binding domain (RBD) of the SARS-CoV-2 spike protein with C-terminal 6xHis-tag (SARS-CoV-2, UniProt P0DTC2 319-541). Description: SPR.
In assay [2] the target is recombinant CD89 (Fc-alpha receptor, FcαRI) with C-terminal His-tag (UniProt P24071 22-227). In words: SPR.
Chain of recombinant CD89 (Fc-alpha receptor, FcαRI) with C-terminal His-tag (P24071 22-227): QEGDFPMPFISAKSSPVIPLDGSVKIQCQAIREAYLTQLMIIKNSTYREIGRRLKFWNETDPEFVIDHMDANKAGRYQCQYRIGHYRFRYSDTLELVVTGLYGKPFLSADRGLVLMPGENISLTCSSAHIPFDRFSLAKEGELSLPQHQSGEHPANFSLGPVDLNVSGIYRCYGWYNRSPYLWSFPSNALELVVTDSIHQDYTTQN

B1: COVA2-15 monomeric IgA2 (antibody)
chain 1: QVQLLESGGGLVQPGGSLRLSCAASGFTFSSYAMSWVRQAPGKGLEWASAISGSGGSTYYADSVEGRFTISRDNSKNTLYLQMNSLRAEDTAVYYCAKDTGYCGDDCYIKLIRGGPDYWGQGTLVTVSS
chain 2: DIVMTQSPLSLPVTLGQPASISCRSSQSLVYSDGNTFLNWFQQRPGQSPRRLIYQVSNRDSGVPDRFSGSGSGTDFTLKISRVEAEDVGVYYCMQGTHWPRTFGQGTKLEIK
B1: the Kd in assay [1] was found to be 1.56 nM; in assay [2], 35.7 nM.
